Molecular target: Mu8.1 conotoxin from Conus mucronatus (Conus mucronatus)
Assay: crystal structure

“Mu8.1 conotoxin from Conus mucronatus (natural protein)” showed a stoichiometry N of 2.

Reference: PMC10478764
